Data on two molecules can be found in paper PMC8971491, “Conformational plasticity of the HIV-1 gp41 immunodominant region is recognized by multiple non-neutralizing antibodies” (Communications Biology, 2022).

The target of this assay is T1, 15-mer peptide corresponding to residues 594-608 of HIV-1 gp160 (HIV-1 Consensus Subtype C Env Peptide Set) (HIV-1 consensus subtype C (stand-in: …, UniProt P04578, strain)).
T1 construct: 15-mer of the HIV-1 consensus subtype C Env peptide set, corresponding to residues 594-608 of HIV-1 gp160; also called single peptide that corresponds to residues 594-608 of HIV-1 gp160; NIH HIV-1 gp41 peptide; source: bought: NIH AIDS Reagent Program, HIV-1 Consensus Subtype C Env Peptide Set (cat. No. 9499)
T1 chain: GIWGCSGKLICTTAV
The experiment in a line: ELISA; 15-mer peptides adsorbed to microtiter plates at 10 ug/mL in 100 mM sodium bicarbonate pH 9.3 overnight at 4 C; Fab at 1 ug/mL in PBST-Milk, 1 hour at room temperature; goat anti-human HRP, absorbance at 450 nm. Particulars: both partners purified. A general note: An ELISA detects its analyte on a solid surface through an enzyme-linked reagent.

B1: Fab 3D6 (Fab, V domains shown)
VH: EVQLVESGGGLVQPGRSLRLSCAASGFTFNDYAMHWVRQAPGKGLEWVSGISWDSSSIGYADSVKGRFTISRDNAKNSLYLQMNSLRAEDMALYYCVKGRDYYDSGGYFTVAFDIWGQGTMVTVSS
VL: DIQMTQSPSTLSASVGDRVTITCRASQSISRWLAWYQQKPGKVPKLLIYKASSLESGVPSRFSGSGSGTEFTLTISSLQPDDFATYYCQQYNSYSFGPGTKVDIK
notes: immunoglobulin heavy chain variable region of 3D6; Ig gamma-1 chain constant region, fused after the variable region; as a Fab only part of the constant region is present; immunoglobulin light chain variable region of 3D6; Ig kappa chain constant region, fused after the variable region; Fab; residues numbered by Kabat convention; also called patient-derived near-germline antibody fragment; …
On to B1, for which the binding result is on record as “binds”.

B2: Fab F240 (Fab, V domains shown)
VH: QVQLVQSGGGVVKPGASLRLACSASGFTFTDYYMSWIRQTPGKGLQWLAYITKDGSEKKYADSLQGRFAVSRDNANNLVFLQLNTVEDDDTGVYYCARDDGYYDRSGYYGVFDLWGQGIRVTVSS
VL: EFLLTQSPDSLAVTLGETATITCRSSRNILHSLNNKNYLAWYQQRPGQAPKLLVIWASMRVSGVADRFSGSGSGTDFALTISSLQPEDAAVYYCQHYYTTHRTFGQGTRVEIR
notes: immunoglobulin heavy chain variable region of F240; Ig gamma-1 chain constant region, fused after the variable region; as a Fab only part of the constant region is present; immunoglobulin light chain variable region of F240; Ig kappa chain constant region, fused after the variable region; Fab; residues numbered by Kabat convention; also called anti-gp41 Fab F240; source: HEK293T, transiently …
For the molecule B2, the binding result is listed as “binds”.
